Assay results taken from paper PMC7164261.

Columns and labels:
[1] = target: T1, Flag-TMIGD1/WT (human TMIGD1, AA 30-262) stably expressed in MDCKII-TetOFF cells (human) (UniProt Q6UXZ0)
T1 sequence: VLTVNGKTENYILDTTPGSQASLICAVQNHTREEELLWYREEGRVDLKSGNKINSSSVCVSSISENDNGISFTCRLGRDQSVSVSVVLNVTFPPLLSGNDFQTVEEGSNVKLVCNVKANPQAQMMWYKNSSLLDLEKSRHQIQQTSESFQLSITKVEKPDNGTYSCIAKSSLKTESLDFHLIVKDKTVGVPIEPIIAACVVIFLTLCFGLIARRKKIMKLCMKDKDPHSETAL

[2] = target: T2, Flag-ΔD1-TMIGD1 (human TMIGD1 lacking the membrane-distal Ig-like domain, AA 115-262) (human) (UniProt Q6UXZ0)
T2 sequence: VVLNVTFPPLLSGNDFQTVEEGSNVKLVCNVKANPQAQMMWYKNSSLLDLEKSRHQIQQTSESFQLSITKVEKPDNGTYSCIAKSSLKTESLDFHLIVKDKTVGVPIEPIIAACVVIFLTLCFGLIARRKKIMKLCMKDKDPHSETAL

B1: Myc-hSYNJ2BP (human SYNJ2BP full length, AA 2-145) (natural protein)
chain: NGRVDYLVTEEEINLTRGPSGLGFNIVGGTDQQYVSNDSGIYVSRIKENGAAALDGRLQEGDKILSVNGQDLKNLLHQDAVDLFRNAGYAVSLRVQHRLQVQNGPIGHRGEGDPSGIPIFMVLVPVFALTMVAAWAFMRYRQQL
recruitment of TMIGD1/WT from cytoplasmic compartments to mitochondria in Myc-SYNJ2BP-expressing MDCKII-TetOFF cells (immunofluorescence microscopy, fraction of cells) [1]: 75%
recruitment of ΔD1-TMIGD1 from cell-cell contacts to mitochondria in Myc-SYNJ2BP-expressing MDCKII-TetOFF cells (immunofluorescence microscopy, fraction of cells) [2]: > 90%
